Measured values published in patent US20210017269A1.

Key:
[1] = target: human complement component C1q (human) (UniProt P02745); assay: ProteOn XPR36 SPR, antibody immobilised, C1q as analyte, equilibrium model
[2] = target: human Fc gamma receptors (FcγR) (human); assay: ProteOn XPR36 SPR, His-tagged receptors captured, antibody as analyte, 25 °C, equilibrium model

human complement component C1q (human), sequence (P02745 23-245 limits assumed, chain 1 of 3): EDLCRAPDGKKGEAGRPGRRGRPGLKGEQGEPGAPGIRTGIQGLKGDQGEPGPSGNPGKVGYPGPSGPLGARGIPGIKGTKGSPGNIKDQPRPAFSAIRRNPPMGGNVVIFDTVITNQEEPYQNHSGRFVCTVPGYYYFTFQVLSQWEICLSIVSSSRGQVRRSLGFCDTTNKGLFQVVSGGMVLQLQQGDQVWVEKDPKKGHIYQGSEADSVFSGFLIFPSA
human complement component C1q (human), sequence (P02746 28-253 limits assumed, chain 2 of 3, further chain): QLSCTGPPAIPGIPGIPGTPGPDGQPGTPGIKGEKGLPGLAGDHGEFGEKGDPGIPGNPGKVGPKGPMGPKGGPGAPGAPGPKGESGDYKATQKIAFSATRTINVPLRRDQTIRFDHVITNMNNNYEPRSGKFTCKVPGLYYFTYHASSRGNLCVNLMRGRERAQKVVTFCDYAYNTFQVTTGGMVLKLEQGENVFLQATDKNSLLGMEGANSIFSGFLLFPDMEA
human complement component C1q (human), sequence (P02747 29-245 limits assumed, chain 3 of 3, further chain): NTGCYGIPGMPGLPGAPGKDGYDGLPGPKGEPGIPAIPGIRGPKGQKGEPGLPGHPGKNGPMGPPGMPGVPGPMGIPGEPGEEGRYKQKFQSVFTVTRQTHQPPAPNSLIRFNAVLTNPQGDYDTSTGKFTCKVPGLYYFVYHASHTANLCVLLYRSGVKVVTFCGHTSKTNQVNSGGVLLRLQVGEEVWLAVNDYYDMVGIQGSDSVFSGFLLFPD

Kd [1] | fold lower affinity than the human IgG1 wild type control [2] | Substance
465 nM |  | IgG1 wildtype isotype control (antibody)
 | 1.5 fold | YTE containing control antibody
